Reference: patent publication US20230220042A1 (SHANGHAI JIAO TONG UNIVERSITY SCHOOL OF MEDICINE, published 2023)
Residue numbers refer to the chain shown, from its start. Names and notes keep the numbering of the source.

T1: Biotin-FcγRIIB (human, UniProt P31994 43-217, limits assumed, biotin-labelled)
T1 construct: Bought, biotin-labelled; used at 1 µg/ml for staining and sorting; also called human FcγRIIB; CD32b
T1 sequence (looked up): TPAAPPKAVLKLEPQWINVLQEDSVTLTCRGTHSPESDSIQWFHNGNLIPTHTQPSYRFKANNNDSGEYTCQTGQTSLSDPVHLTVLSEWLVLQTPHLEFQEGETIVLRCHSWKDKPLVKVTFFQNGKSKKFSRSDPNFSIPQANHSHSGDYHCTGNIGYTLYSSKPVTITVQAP

B1: anti-human OX40 antibody, human IgG2 Fc mutant Mut_8 (V266L/L328W) (antibody, name in EU numbering)
heavy: QVQLQESGPGLVKPSGTLSLTCAVSGGSISSSIWWSWVRQPPGKGLEWIGEIHHSGNTNCNPSLKSRVTISIDKSKNQFSLKLTSVTAADTAVYYCARAGTGTTLDYWGQGTLVTVSSASTKGPSVFPLAPCSRSTSESTAALGCLVKDYFPEPVTVSWNSGALTSGVHTFPAVLQSSGLYSLSSVVTVPSSNFGTQTYTCNVDHKPSNTKVDKTVERKCCVECPPCPAPPVAGPSVFLFPPKPKDTLMISRTPEVTCVVVDLSHEDPEVQFNWYVDGVEVHNAKTKPREEQFNSTFRVVSVLTVVHQDWLNGKEYKCKVSNKGWPAPIEKTISKTKGQPREPQVYTLPPSREEMTKNQVSLTCLVKGFYPSDIAVEWESNGQPENNYKTTPPMLDSDGSFFLYSKLTVDKSRWQQGNVFSCSVMHEALHNHYTQKSLSLSPGK
light: EIVLTQSPGTLSLSPGERATLSCRASQSVSGDYLAWYQQKLGQAPRLLIYGASIRATGIPDRFSGSGSGTDFTLTISKLEPEDFAVYYCQQYGSSPLTFGGGTKVEIKRTVAAPSVFIFPPSDEQLKSGTASVVCLLNNFYPREAKVQWKVDNALQSGNSQESVTEQDSKDSTYSLSSTLTLSKADYEKHKVYACEVTHQGLSSPVTKSFNRGEC
B2: anti-human OX40 antibody, human IgG2 Fc mutant Mut_19 (V266L/S267E/H268S/E269V/P271C) (antibody, name in EU numbering)
heavy: B1 heavy with S264E, H265S, E266V, P268C, W325L
light: B1 light
B3: anti-human OX40 antibody, human IgG2 Fc mutant Mut_22 (V266L/S267M/H268E/P271Q) (antibody, name in EU numbering)
heavy: B1 heavy with S264M, H265E, P268Q, W325L
light: B1 light
B4: anti-human OX40 antibody, human IgG2 Fc mutant Mut_2 (H268D/S298L/L328W) (antibody, name in EU numbering)
heavy: B1 heavy with L263V, H265D, S295L
light: B1 light
B5: anti-human OX40 antibody, human IgG2 Fc mutant Mut_23 (V266L/S267E/E269K/P271G) (antibody, name in EU numbering)
heavy: B1 heavy with S264E, E266K, P268G, W325L
light: B1 light
B6: human IgG2 anti-mouse CD40 surface displayed antibody, Fc mutant A330R (antibody, name in EU numbering)
light chain (with the P2A rest): DTVLTQSPALAVSPGERVTISCRASDSVSTLMHWYQQKPGQQPKLLIYLASHLESGVPARFSGSGSGTDFTLTIDPVEADDTATYYCQQSWNDPWTFGGGTKLELKRTVAAPSVFIFPPSDEQLKSGTASVVCLLNNFYPREAKVQWKVDNALQSGNSQESVTEQDSKDSTYSLSSTLTLSKADYEKHKVYACEVTHQGLSSPVTKSFNRGECGSGATNFSLLKQAGDVEENPG
heavy chain: EVQLVESDGGLVQPGRSLKLPCAASGFTFSDYYMAWVRQAPTKGLEWVASISYDGSSTYYRDSVKGRFTISRDNAKSTLYLQMDSLRSEDTATYYCGRHSSYFDYWGQGVMVTVSSASTKGPSVFPLAPCSRSTSESTAALGCLVKDYFPEPVTVSWNSGALTSGVHTFPAVLQSSGLYSLSSVVTVPSSNFGTQTYTCNVDHKPSNTKVDKTVERKCCVECPPCPAPPVAGPSVFLFPPKPKDTLMISRTPEVTCVVVDVSHEDPEVQFNWYVDGVEVHNAKTKPREEQFNSTFRVVSVLTVVHQDWLNGKEYKCKVSNKGLPRPIEKTISKTKGQPREPQVYTLPPSREEMTKNQVSLTCLVKGFYPSDIAVEWESNGQPENNYKTTPPMLDSDGSFFLYSKLTVDKSRWQQGNVFSCSVMHEALHNHYTQKSLSLSPGKLEPPPSTVSNMATVAVLVVLGAAIVTGAVVAFVMKMRRRNTGGKGGDYALAPGSQTSDLSLPDCKVMVHDPHSLA
notes: as m1; positions are Eu numbers; copies: 2 + 2
B7: human IgG2 anti-mouse CD40 surface displayed antibody, Fc mutant P271C (antibody, name in EU numbering)
light chain (with the P2A rest): B6 light chain (with the P2A rest)
heavy chain: B6 heavy chain with P266C, R325A
notes: as for B6
B8: human IgG2 anti-mouse CD40 surface displayed antibody, Fc mutant S298K (antibody, name in EU numbering)
light chain (with the P2A rest): B6 light chain (with the P2A rest)
heavy chain: B6 heavy chain with S293K, R325A
notes: as for B6
B9: human IgG2 anti-mouse CD40 surface displayed antibody, Fc mutant P331T (antibody, name in EU numbering)
light chain (with the P2A rest): B6 light chain (with the P2A rest)
heavy chain: B6 heavy chain with R325A, P326T
notes: as for B6
B10: human IgG2 anti-mouse CD40 surface displayed antibody, Fc mutant L328E/I332T (antibody, name in EU numbering)
light chain (with the P2A rest): B6 light chain (with the P2A rest)
heavy chain: B6 heavy chain with L323E, R325A, I327T
notes: as for B6

Columns and labels:
human OX40 (human) = human OX40 (human) (UniProt P43489); experiment: cell-based or functional assay
Sequence of human OX40 (human) (P43489 29-277): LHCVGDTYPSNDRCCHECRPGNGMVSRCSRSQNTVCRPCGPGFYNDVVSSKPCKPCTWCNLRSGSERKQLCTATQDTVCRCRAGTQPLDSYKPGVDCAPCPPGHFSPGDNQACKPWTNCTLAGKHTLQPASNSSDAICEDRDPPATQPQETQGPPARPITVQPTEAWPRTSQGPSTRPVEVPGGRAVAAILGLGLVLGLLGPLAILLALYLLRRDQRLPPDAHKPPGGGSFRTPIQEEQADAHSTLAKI

Biotin-FcγRIIB = target: T1, Biotin-FcγRIIB; experiment: FACS sorting of displayed Fc library on biotin-FcγRIIB, NGS

| Molecule | Average increased factor of the activity over wild-type IgG2 of two experiments (human OX40 (human)) | Experiment 1 CFSE fluorescence intensity, 0.01 µg/ml (human OX40 (human)) | Experiment 1 CFSE fluorescence intensity, 0.1 µg/ml (human OX40 (human)) | Experiment 1 CFSE fluorescence intensity, 1 µg/ml (human OX40 (human)) | Experiment 2 CFSE fluorescence intensity, 0.1 µg/ml (human OX40 (human)) | Experiment 2 CFSE fluorescence intensity, 1 µg/ml (human OX40 (human)) | Average relative activity of two experiments (human OX40 (human)) | Experiment 1 average relative activity (human OX40 (human)) | Experiment 1 relative activity, 0.01 µg/ml (human OX40 (human)) | Experiment 1 relative activity, 0.1 µg/ml (human OX40 (human)) | Experiment 1 relative activity, 1 µg/ml (human OX40 (human)) | Experiment 2 average relative activity (human OX40 (human)) | Experiment 2 relative activity, 0.1 µg/ml (human OX40 (human)) | Experiment 2 relative activity, 1 µg/ml (human OX40 (human)) | Increased factor b Site 2 (point mutation/wild-type) (Biotin-FcγRIIB) | Enrichment factor (after/before sorting) (Biotin-FcγRIIB) | Increased factor a (enrichment factor/wild-type enrichment factor) (Biotin-FcγRIIB) |
| --- | --- | --- | --- | --- | --- | --- | --- | --- | --- | --- | --- | --- | --- | --- | --- | --- | --- |
| Ctrl hIgG (antibody) | 0.65 | 1020 | 1080 | 1070 | 2730 | 2590 |  |  |  |  |  |  |  |  |  |  |  |
| B1 | 12.3 | 844 | 719 | 799 | 1810 | 1440 | 0.54 | 0.46 | 0.36 | 0.59 | 0.44 | 0.65 | 0.55 | 0.75 |  |  |  |
| B2 | 10.5 | 880 | 735 | 824 | 2090 | 1670 | 0.46 | 0.42 | 0.3 | 0.56 | 0.4 | 0.52 | 0.41 | 0.63 |  |  |  |
| B3 | 9.9 |  |  |  | 2290 | 1790 | 0.43 |  |  |  |  | 0.43 | 0.3 | 0.56 |  |  |  |
| B4 | 16.5 | 685 | 654 | 677 | 1550 | 1150 | 0.72 | 0.67 | 0.65 | 0.71 | 0.66 | 0.8 | 0.69 | 0.9 |  |  |  |
| B5 | 9.8 | 898 | 777 | 843 | 2160 | 1600 | 0.43 | 0.37 | 0.26 | 0.48 | 0.36 | 0.52 | 0.37 | 0.67 |  |  |  |
| B6 |  |  |  |  |  |  |  |  |  |  |  |  |  |  | 0 |  |  |
| B7 |  |  |  |  |  |  |  |  |  |  |  |  |  |  | 29.9 |  |  |
| B8 |  |  |  |  |  |  |  |  |  |  |  |  |  |  | 4.4 |  |  |
| B9 |  |  |  |  |  |  |  |  |  |  |  |  |  |  | 0.1 |  |  |
| B10 |  |  |  |  |  |  |  |  |  |  |  |  |  |  |  | 55.1 | 36.9 |
